Experimental data: the supplement of paper PMC11865577

Tests used:
Assay in all cases: pull-down binding Z-score (relative to library population); higher = stronger binding
Conditions in all cases: RNA library: Library-2
[1] = test system: TO-3-N3 (biotin conjugate)
Summary of the method: (§1)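 A heat-folded, dye-end-labelled (Cy5 or Cy3) RNA library (1 μg, phosphate/NaCl/KCl buffer) was exposed for 60 min at 25 °C to streptavidin beads holding 100 pmol of biotin-conjugated small molecule. RNA retained on the beads was eluted in hot SDS and hybridised to a DNA barcode microarray for 20 h at 55.5 °C. Binding scores were Z-scores against the library mean and standard deviation, calculated after subtracting beads alone and taking trimmed means of replicate probes.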

[2] = test system: TO-3-N3-2 (biotin conjugate)
Summary of the method: as §1

TO-N3 (biotin conjugate) = test system: TO-N3 (biotin conjugate)
Summary of the method: as §1

[3] = test system: TO-N3-2 (biotin conjugate)
Summary of the method: as §1

Sequence | pull-down binding Z-score [1] | pull-down binding Z-score [2] | pull-down binding Z-score (TO-N3 (biotin conjugate)) | pull-down binding Z-score [3]
GCAGUUAAAAUGUUUGAUGCUUACGUUAAUACGUUUUCAUCAACUUUUAACGU | -1.09 | -0.145 | -1.37 | -1.09
GCAUACAGUCGCUACAGGAUUGGCAACUAUAAAUUAAACACAGACCAUUCCAGUAGCAGUGACAAUAUUGC [SHAPE_invivo_SARS-CoV-2_Motif_513] | -0.0312 | 0.365 | 0.116 | 0.259
GCAUGAUGUUUCAUCUGC | 1.18 | 0.0512 | 0.951 | -0.496
GCAUUGAUUUAGAUGAGUGGAGUAUGGCUACAUACUACUUAUUUGAUGAGUCUGGUGAGUUUAAAUUGGCUUCACAUAUGU | -0.215 | -0.04 | 0.0261 | 0.256
GCCACAAAGGC [IAV_invivo_PA_3_Motif_6+IAV_invivo_PA_3_Motif_6] | -0.745 | -0.685 | -1.13 | -0.964
GCCACGUAUAAACCAAAUACCUGGUGUAUACGUUGU | 0.576 | -0.377 | 0.17 | -0.78
GCCACUAGUCUCUAGUCAGUGUGUUAAUCUUACAACCAGAACUCAAUUACCCCCUGCAUACACUAAUUCUUUCACACGUGGU [SHAPE_invivo_SARS-CoV-2_Motif_403] | -0.0417 | 0.101 | 0.388 | 0.688
GCCACUUGCGAAUUUUGUGGC | 0.0442 | -0.0945 | -0.312 | -0.997
GCCAGCACAUGGUCCAGCCAAAAACAUGGAGUAUGAUGCUGUUGC [IAV_invivo_PB1_2_Motif_34+IAV_invivo_PB1_2_Motif_34] | -0.602 | -0.346 | -0.304 | 1.43
GCCAGUUGGAGGC [IAV_invivo_PB1_2_Motif_15+IAV_invivo_PB1_2_Motif_15] | -0.0995 | -0.201 | -0.233 | 0.153
GCCAUUGCCGGU [IAV_invivo_HA_4_Motif_15+IAV_invivo_HA_4_Motif_15] | -0.443 | -0.49 | -0.593 | -0.0811
GCCAUUUGUCAUGAUGGAAAAGCACACUUUCCUCGUGAAGGUGUCUUUGUUUCAAAUGGC | -1.16 | -0.592 | -1.39 | -0.949
GCCCCAUUCCUUGAUCGGCUUCGCCGAGAUCAGAAAUCCCUAAGAGGAAGGGGC [IAV_invivo_NS1_NEP_8_Motif_3+IAV_invivo_NS1_NEP_8_Motif_3] | -0.845 | -0.223 | -0.849 | 0.181
GCCCUGGAAUGAUGAUGGGC [IAV_invivo_PB1_2_Motif_20+IAV_invivo_PB1_2_Motif_20] | 0.0132 | 0.012 | 0.138 | 0.65
GCCCUUAUAGGGC [IAV_invivo_NA_6_Motif_5+IAV_invivo_NA_6_Motif_5] | 0.164 | -0.38 | -0.247 | -1.22
GCCGAAUACCAUAAUGAAUCUGGC [SHAPE_invitro_SARS-CoV-2_Motif_29] | -0.597 | -0.529 | -0.479 | -0.0249
GCCGCCACUAGAGGAGCUACUGUAGUAAUUGGAACAAGCAAAUUCUAUGGUGGUUGGC | 0.361 | 0.675 | 0.89 | 1.24
GCCGGAUCAGACCGAGUGAUGGUAUCACCACUGGC [IAV_invivo_PB2_1_Motif_5+IAV_invivo_PB2_1_Motif_5] | -0.361 | -0.146 | -0.143 | 0.505
GCCGGUAGCACACCUUGUAAUGGUGUUGAAGGU [SHAPE_invitro_SARS-CoV-2_Motif_416] | 0.478 | -0.509 | 0.452 | 0.332
